Laboratory results: publication PMC2945410

Columns and labels:
[1] = test system: O=[N+]([O-])c1ccc(OP(=O)(O)Oc2ccc([N+](=O)[O-])cc2)cc1; assay: purified protein; format: biochemical, Shigella flexneri; conditions: standard assay: 50 mM HEPES pH 7.5, 2 mM MnCl2
[2] = test system: O=[N+]([O-])c1ccc(OP(=O)(O)Oc2ccc([N+](=O)[O-])cc2)cc1; assay: purified protein; format: biochemical, Thiobacillus denitrificans; conditions: standard assay: 50 mM HEPES pH 7.5, 2 mM MnCl2

Row | Substance | Km [1] | Vmax [1] | kcat [1] | kcat/Km [1] | Km [2] | Vmax [2] | kcat [2] | kcat/Km [2]
1 | SFV_3559 EAL domain (YhjK) (Shigella flexneri) | 14.1 ± 4.2 mM | 2.1 µmol/min/mg | 8 s⁻¹ | 600 M⁻¹ s⁻¹ |  |  |  | 
2 | TBD1265 EAL domain (Thiobacillus denitrificans ATCC 25259) |  |  |  |  | 20.0 ± 1.3 mM | 0.1 µmol/min/mg | 0.06 s⁻¹ | 3 M⁻¹ s⁻¹
